Measured values: paper PMC2756588

T1: Sla1-2, P32790
T1 sequence (P32790 60-140, looked up): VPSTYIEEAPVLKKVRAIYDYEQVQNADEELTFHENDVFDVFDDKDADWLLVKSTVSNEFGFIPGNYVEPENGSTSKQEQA

T2: Bzz1-1, P38822
T2 sequence (P38822 478-572, looked up): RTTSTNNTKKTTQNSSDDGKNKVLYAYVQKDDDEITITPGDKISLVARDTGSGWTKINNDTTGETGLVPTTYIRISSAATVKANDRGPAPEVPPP

T3: Pex13, P80667
T3 sequence (P80667 295-386, looked up): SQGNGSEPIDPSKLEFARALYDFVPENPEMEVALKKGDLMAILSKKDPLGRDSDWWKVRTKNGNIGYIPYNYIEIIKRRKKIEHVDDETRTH

T4: Bbc1, P47068
T4 sequence (P47068 1-78, looked up): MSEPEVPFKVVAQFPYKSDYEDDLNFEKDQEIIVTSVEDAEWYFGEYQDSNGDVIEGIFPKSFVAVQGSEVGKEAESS

T5: Myo5, Q04439
T5 sequence (Q04439 1072-1160, looked up): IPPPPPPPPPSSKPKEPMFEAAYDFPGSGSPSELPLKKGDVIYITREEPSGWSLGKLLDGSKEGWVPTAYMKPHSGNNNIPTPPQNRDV

T6: Cyk3, Q07533
T6 sequence (Q07533 1-83, looked up): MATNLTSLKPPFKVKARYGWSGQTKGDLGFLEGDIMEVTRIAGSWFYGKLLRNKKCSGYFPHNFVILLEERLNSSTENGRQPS

T7: Sla1-3, P32790
T7 sequence (P32790 344-424, looked up): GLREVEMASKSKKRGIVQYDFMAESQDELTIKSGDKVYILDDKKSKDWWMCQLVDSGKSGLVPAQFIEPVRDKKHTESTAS

T8: Abp1, P15891
T8 sequence (P15891 535-592, looked up): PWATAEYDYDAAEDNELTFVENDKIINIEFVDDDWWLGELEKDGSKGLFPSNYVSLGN

T9: Bud14, P27637
T9 sequence (P27637 247-328, looked up): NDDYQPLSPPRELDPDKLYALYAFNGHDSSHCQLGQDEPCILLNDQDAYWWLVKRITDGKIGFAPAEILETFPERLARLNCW

T10: Nbp2, Q12163
T10 sequence (Q12163 103-180, looked up): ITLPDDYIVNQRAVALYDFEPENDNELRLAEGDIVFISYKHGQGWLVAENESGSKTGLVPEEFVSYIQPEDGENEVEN

T11: Lsb4, P32793
T11 sequence (P32793 402-468, looked up): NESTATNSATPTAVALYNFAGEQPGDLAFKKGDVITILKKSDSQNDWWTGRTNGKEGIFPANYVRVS

T12: Lsb3, P43603
T12 sequence (P43603 385-451, looked up): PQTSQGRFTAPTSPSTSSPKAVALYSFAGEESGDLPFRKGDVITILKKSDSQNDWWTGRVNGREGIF

T13: Boi1, P38041
T13 sequence (P38041 1-86, looked up): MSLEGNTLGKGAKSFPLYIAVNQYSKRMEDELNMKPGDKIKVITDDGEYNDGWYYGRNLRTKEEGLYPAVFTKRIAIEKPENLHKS

T14: Cdc25, P04821
T14 sequence (P04821 50-136, looked up): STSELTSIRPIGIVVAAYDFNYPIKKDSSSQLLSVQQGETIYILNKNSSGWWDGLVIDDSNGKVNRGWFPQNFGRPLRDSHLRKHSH

T15: Hof1, Q05080
T15 sequence (Q05080 590-669, looked up): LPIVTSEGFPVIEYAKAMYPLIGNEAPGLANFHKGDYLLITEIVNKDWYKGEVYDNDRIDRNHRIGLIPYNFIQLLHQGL

T16: Fus1, P11710
T16 sequence (P11710 432-512, looked up): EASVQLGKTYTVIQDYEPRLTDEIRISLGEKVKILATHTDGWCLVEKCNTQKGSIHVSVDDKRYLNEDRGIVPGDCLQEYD

T17: Hse1, P38753
T17 sequence (P38753 208-285, looked up): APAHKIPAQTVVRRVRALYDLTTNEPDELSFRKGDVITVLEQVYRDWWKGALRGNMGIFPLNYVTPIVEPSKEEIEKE

T18: Pin3, Q06449
T18 sequence (Q06449 53-122, looked up): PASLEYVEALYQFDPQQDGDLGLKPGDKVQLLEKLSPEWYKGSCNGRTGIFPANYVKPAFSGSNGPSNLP

T19: Boi2, P39969
T19 sequence (P39969 32-116, looked up): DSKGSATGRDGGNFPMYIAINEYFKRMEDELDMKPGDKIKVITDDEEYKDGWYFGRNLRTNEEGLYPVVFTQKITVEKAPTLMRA

T20: Bzz1-2, P38822
T20 sequence (P38822 568-633, looked up): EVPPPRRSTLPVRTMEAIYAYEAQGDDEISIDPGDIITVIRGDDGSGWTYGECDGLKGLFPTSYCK

T21: Lsb1, P53281
T21 sequence (P53281 45-122, looked up): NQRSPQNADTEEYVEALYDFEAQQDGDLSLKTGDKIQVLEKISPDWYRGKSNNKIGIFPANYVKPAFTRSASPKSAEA

B1: unnamed (peptide)
chain: TIRRRAPLSLLESHT
B2: unnamed (peptide)
chain: RKLRTVPGVPLIHLT
B3: unnamed (peptide)
chain: KRKRRLPVSEDTNTK

The binders below were run against T1, Sla1-2, P32790 (assay: SPOT array). Conditions: median of control spots 712.

| SPOT intensity | Binder |
| --- | --- |
| 1 | B1 |
| 1 | B2 |
| 0 | B3 |

Each binder was assayed against Bem1-2, P29366 (assay: SPOT array). Conditions: median of control spots 4347.
Sequence of Bem1-2, P29366 (P29366 139-227): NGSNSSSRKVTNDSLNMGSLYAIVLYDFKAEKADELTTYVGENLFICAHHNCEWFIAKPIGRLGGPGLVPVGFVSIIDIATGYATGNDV

| SPOT intensity | Binder |
| --- | --- |
| 4 | B1 |
| 0 | B2 |
| 0 | B3 |

What follows are binders tested against T2, Bzz1-1, P38822 (assay: SPOT array). Conditions: median of control spots 4446.

| SPOT intensity | Binder |
| --- | --- |
| 3 | B1 |
| 1 | B2 |
| 3 | B3 |

These binders were tested against GST (assay: SPOT array). Conditions: median of control spots 978.

| SPOT intensity | Binder |
| --- | --- |
| 1 | B1 |
| 1 | B2 |
| 6 | B3 |

The binders below were run against T3, Pex13, P80667 (assay: SPOT array). Conditions: median of control spots 1341.

| SPOT intensity | Binder |
| --- | --- |
| 3 | B1 |
| 4 | B2 |
| 0 | B3 |

The binders below were run against T4, Bbc1, P47068 (assay: SPOT array). Conditions: median of control spots 796.

| SPOT intensity | Binder |
| --- | --- |
| 15 | B1 |
| 34 | B2 |
| 77 | B3 |

Each binder was assayed against T5, Myo5, Q04439 (assay: SPOT array). Conditions: median of control spots 471.

| SPOT intensity | Binder |
| --- | --- |
| 0 | B1 |
| 0 | B2 |
| 0 | B3 |

What follows are binders tested against T6, Cyk3, Q07533 (assay: SPOT array). Conditions: median of control spots 1451.

| SPOT intensity | Binder |
| --- | --- |
| 3 | B1 |
| 0 | B2 |
| 8 | B3 |

The binders below were run against Sho1, P40073 (assay: SPOT array). Conditions: median of control spots 1148.
Sequence of Sho1, P40073 (P40073 287-367): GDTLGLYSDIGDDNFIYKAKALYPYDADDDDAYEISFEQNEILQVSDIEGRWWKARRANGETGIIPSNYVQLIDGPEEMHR

| SPOT intensity | Binder |
| --- | --- |
| 52 | B1 |
| 6 | B2 |
| 54 | B3 |

These binders were tested against T7, Sla1-3, P32790 (assay: SPOT array). Conditions: median of control spots 5475.

| SPOT intensity | Binder |
| --- | --- |
| 38 | B1 |
| 5 | B2 |
| 21 | B3 |

Each binder was assayed against T8, Abp1, P15891 (assay: SPOT array). Conditions: median of control spots 935.

| SPOT intensity | Binder |
| --- | --- |
| 46 | B1 |
| 5 | B2 |
| 78 | B3 |

Each binder was assayed against T9, Bud14, P27637 (assay: SPOT array). Conditions: median of control spots 956.

| SPOT intensity | Binder |
| --- | --- |
| 13 | B1 |
| 3 | B2 |
| 22 | B3 |

What follows are binders tested against Bem1-1, P29366 (assay: SPOT array). Conditions: median of control spots 4282.
Sequence of Bem1-1, P29366 (P29366 55-141): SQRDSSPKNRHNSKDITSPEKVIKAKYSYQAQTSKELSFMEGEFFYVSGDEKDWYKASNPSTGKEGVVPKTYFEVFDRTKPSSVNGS

| SPOT intensity | Binder |
| --- | --- |
| 2 | B1 |
| 0 | B2 |
| 1 | B3 |

These binders were tested against T10, Nbp2, Q12163 (assay: SPOT array). Conditions: median of control spots 357.

| SPOT intensity | Binder |
| --- | --- |
| 11 | B1 |
| 0 | B2 |
| 8 | B3 |

These binders were tested against T11, Lsb4, P32793 (assay: SPOT array). Conditions: median of control spots 397.

| SPOT intensity | Binder |
| --- | --- |
| 1 | B1 |
| 5 | B2 |
| 4 | B3 |

The binders below were run against Myo3, P36006 (assay: SPOT array). Conditions: median of control spots 468.

| SPOT intensity | Binder |
| --- | --- |
| 0 | B1 |
| 8 | B2 |
| 9 | B3 |

These binders were tested against T12, Lsb3, P43603 (assay: SPOT array). Conditions: median of control spots 406.

| SPOT intensity | Binder |
| --- | --- |
| 0 | B1 |
| 2 | B2 |
| 8 | B3 |

Each binder was assayed against Rvs167, P39743 (assay: SPOT array). Conditions: median of control spots 2707.
Sequence of Rvs167, P39743 (P39743 419-482): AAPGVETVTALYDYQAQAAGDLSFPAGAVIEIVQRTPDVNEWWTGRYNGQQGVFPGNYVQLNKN

| SPOT intensity | Binder |
| --- | --- |
| 3 | B1 |
| 43 | B2 |
| 1 | B3 |

These binders were tested against T13, Boi1, P38041 (assay: SPOT array). Conditions: median of control spots 1162.

| SPOT intensity | Binder |
| --- | --- |
| 1 | B1 |
| 0 | B2 |
| 6 | B3 |

The binders below were run against T14, Cdc25, P04821 (assay: SPOT array). Conditions: median of control spots 969.

| SPOT intensity | Binder |
| --- | --- |
| 13 | B1 |
| 0 | B2 |
| 16 | B3 |

The binders below were run against T15, Hof1, Q05080 (assay: SPOT array). Conditions: median of control spots 4086.

| SPOT intensity | Binder |
| --- | --- |
| 4 | B1 |
| 2 | B2 |
| 0 | B3 |

Each binder was assayed against T16, Fus1, P11710 (assay: SPOT array). Conditions: median of control spots 1200.

| SPOT intensity | Binder |
| --- | --- |
| 3 | B1 |
| 2 | B2 |
| 150 | B3 |

What follows are binders tested against T17, Hse1, P38753 (assay: SPOT array). Conditions: median of control spots 1727.

| SPOT intensity | Binder |
| --- | --- |
| 16 | B1 |
| 0 | B2 |
| 4 | B3 |

These binders were tested against T18, Pin3, Q06449 (assay: SPOT array). Conditions: median of control spots 2171.

| SPOT intensity | Binder |
| --- | --- |
| 11 | B1 |
| 3 | B2 |
| 4 | B3 |

These binders were tested against T19, Boi2, P39969 (assay: SPOT array). Conditions: median of control spots 1161.

| SPOT intensity | Binder |
| --- | --- |
| 2 | B1 |
| 0 | B2 |
| 2 | B3 |

The binders below were run against T20, Bzz1-2, P38822 (assay: SPOT array). Conditions: median of control spots 4538.

| SPOT intensity | Binder |
| --- | --- |
| 8 | B1 |
| 0 | B2 |
| 1 | B3 |

What follows are binders tested against T21, Lsb1, P53281 (assay: SPOT array). Conditions: median of control spots 388.

| SPOT intensity | Binder |
| --- | --- |
| 29 | B1 |
| 0 | B2 |
| 1 | B3 |
